According to publication PMC6265244, “A synthetic microbial biosensor for high-throughput screening of lactam biocatalysts” (Nature Communications, 2018):

How the values were obtained:
[1] = molecular target: T1, CF3HBD (Citrobacter freundii, UniProt A0A0D7LY80); experiment: X-ray crystal structure, […] Å; format: binding; settings: 5 mM NAD+, 3.2 M sodium acetate pH 6.5, 20 °C
T1 construct: gene AI2602V1_2506; tetramer in the asymmetric unit (two subunits NAD+-free)
T1 sequence (A0A0D7LY80 1-256): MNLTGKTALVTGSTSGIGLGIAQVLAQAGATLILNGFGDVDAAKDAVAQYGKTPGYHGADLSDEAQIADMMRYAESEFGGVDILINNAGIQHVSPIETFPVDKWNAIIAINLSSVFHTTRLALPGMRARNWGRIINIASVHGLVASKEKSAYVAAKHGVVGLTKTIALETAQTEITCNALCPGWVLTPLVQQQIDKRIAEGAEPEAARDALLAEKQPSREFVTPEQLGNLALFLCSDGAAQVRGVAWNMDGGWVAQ

[2] = molecular target: 3-hydroxybutyrate dehydrogenase from Citrobacter freundii (CF3HBD) (Citrobacter freundii); experiment: crystal structure; hanging-drop vapor diffusion at 20 °C, protein with 5 mM NAD+, 3.2 M sodium acetate pH 6.5; space group P2_(1), four molecules in an asymmetric unit
[3] = molecular target: T2, SM3HBD (Serratia marcescens, UniProt A0A2F0PAS1); experiment: cyclization assay with purified enzyme, ε-caprolactam formed; format: biochemical
T2 construct: gene DMW51_14370
T2 sequence (A0A2F0PAS1 1-256): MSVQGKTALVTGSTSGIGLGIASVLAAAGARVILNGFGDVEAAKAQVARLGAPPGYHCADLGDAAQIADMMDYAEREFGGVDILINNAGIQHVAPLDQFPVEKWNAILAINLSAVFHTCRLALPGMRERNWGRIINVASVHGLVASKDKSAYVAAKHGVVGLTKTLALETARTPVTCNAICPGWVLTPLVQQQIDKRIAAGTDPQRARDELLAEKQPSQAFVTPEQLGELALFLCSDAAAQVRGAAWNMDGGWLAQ

[4] = substrate: NCCCCCC(=O)O; experiment: LC-MS of caprolactam formed, Michaelis-Menten fit; format: biochemical, Citrobacter freundii; settings: 50 mM HEPES pH 7.5, 35 °C, 10 min, no cofactor or metal, cyclization to ε-caprolactam

NC(=O)c1ccc[n+]([C@@H]2O[C@H](COP(=O)(O)OP(=O)(O)OC[C@H]3O[C@@H](n4cnc5c(N)ncnc54)[C@H](O)[C@@H]3O)[C@@H](O)[C@H]2O)c1 [NAD^+] was tested, and the “X-ray crystal structure, 2.29 Å” value [1] was “we determined the crystal structure of CF3HBD in complex with NAD^+”.

“3-hydroxybutyrate dehydrogenase from Citrobacter freundii (CF3HBD) (enzyme)” gave a stoichiometry N [2] of 4.

NCCCCCC(=O)O [6-aminocaproic acid] was tested, and the “cyclization assay with purified enzyme, ε-caprolactam formed” value [3] was “both enzymes showed cyclization activity towards 6-ACA to produce ε-caprolactam”.

B1: CF3HBD (Citrobacter freundii) (protein)
chain: T1 sequence (A0A0D7LY80 1-256)
notes: tetramer in the asymmetric unit (two subunits NAD+-free)
B1 showed a Km [4] of 3.3 ± 0.3 mM, a kcat [4] of 0.0012 ± 3.33e-05 s⁻¹ and a kcat/Km [4] of 0.363 ± 0.03 M⁻¹ s⁻¹.
